Reference: IntAct's records for PubMed 18628306

B1: Mitochondrial chaperone BCS1 (Homo sapiens), Q9Y276 (parent)
chain: MPLSDFILALKDNPYFGAGFGLVGVGTALALARKGVQLGLVAFRRHYMITLEVPARDRSYAWLLSWLTRHSTRTQHLSVETSYLQHESGRISTKFEFVPSPGNHFIWYRGKWIRVERSREMQMIDLQTGTPWESVTFTALGTDRKVFFNILEEARELALQQEEGKTVMYTAVGSEWRPFGYPRRRRPLNSVVLQQGLADRIVRDVQEFIDNPKWYTDRGIPYRRGYLLYGPPGCGKSSFITALAGELEHSICLLSLTDSSLSDDRLNHLLSVAPQQSLVLLEDVDAAFLSRDLAVENPVKYQGLGRLTFSGLLNALDGVASTEARIVFMTTNHVDRLDPALIRPGRVDLKEYVGYCSHWQLTQMFQRFYPGQAPSLAENFAEHVLRATNQISPAQVQGYFMLYKNDPVGAIHNAESLRR

Variants of: B1
Settings: with letm1_human LETM1, O95202
letm1_human LETM1, O95202, sequence (O95202 whole entry): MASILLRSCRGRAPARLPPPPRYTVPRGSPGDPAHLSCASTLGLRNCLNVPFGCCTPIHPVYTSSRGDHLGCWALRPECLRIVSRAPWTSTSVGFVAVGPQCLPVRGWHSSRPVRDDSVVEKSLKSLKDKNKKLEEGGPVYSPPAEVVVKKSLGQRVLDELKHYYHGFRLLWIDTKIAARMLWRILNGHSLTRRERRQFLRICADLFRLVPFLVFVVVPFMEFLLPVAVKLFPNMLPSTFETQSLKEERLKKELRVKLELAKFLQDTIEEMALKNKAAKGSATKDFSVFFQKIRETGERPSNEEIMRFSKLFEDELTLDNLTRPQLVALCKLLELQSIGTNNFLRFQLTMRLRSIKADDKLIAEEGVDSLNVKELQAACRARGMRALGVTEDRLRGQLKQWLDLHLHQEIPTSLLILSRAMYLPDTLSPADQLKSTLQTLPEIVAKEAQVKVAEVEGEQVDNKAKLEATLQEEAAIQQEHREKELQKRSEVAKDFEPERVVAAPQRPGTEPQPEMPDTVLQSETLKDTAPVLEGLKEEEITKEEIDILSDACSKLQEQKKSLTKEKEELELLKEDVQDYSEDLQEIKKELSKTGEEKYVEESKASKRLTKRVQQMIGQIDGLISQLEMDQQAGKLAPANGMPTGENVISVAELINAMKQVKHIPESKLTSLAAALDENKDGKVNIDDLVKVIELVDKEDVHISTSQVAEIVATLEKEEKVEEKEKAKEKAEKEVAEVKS

effect of a mutation on the interaction	Variant
disrupting interaction	R155P
